According to patent US20240115668A1, “TREATMENT OF SPINAL CORD INJURY WITH PTEN INHIBITOR” (KOLON TISSUEGENE, INC., priority 2020, published 2024):
Where no end group is shown, it is not given here.

How the values were obtained:
PTEN [1] = molecular target: T1, PTEN (Homo sapiens, UniProt P60484); settings: previous study of Odriozola et al.; read-out: IC50 (in vitro PTEN activity, Odriozola et al.); cited from earlier work
Target sequence in this assay (P60484 whole entry, species assumed): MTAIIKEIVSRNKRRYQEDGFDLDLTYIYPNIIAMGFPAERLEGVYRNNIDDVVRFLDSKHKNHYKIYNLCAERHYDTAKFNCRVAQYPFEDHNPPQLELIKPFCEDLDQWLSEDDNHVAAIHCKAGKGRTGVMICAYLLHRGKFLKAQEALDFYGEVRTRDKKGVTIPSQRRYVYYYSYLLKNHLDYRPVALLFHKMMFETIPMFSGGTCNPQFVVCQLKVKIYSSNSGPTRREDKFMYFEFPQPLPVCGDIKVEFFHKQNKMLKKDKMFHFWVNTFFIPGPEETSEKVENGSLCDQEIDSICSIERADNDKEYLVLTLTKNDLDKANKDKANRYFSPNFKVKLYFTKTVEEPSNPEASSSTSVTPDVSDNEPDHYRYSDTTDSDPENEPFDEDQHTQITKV

PTEN [2] = molecular target: T1, PTEN; experiment: In vitro PTEN activity assay / IC50 assay (Malachite Green phosphate detection, C8-PIP3 liposome substrate); assay type: biochemical; set-up: purchased R&D Systems, Inc; settings: 10 μM peptide, 20 ng recombinant human PTEN, 0.1 mM C8-PIP3 liposome
Target sequence in this assay (P60484 whole entry): as the sequence (P60484 whole entry, species assumed) above
From the text: In vitro PTEN activity assay was designed to check PTEN lipid phosphatase activity to convert phosphatidylinositol triphosphate (PIP3) to phosphatidylinositol diphosphate (PIP2) and produce phosphate ion (Pi). 1,2-dioctanoyl-sn-glycero-3-phospho-(1′-myo-inositol-3,4,5-triphosphate) (C8-PIP3) was used as PTEN substrate and prepared as lipid vesicle (liposome) with other phospholipids because PTEN as lipid phosphatase is an interfacial enzyme. For liposome preparation, C8-PIP3, DOPS (1,2-dioeloyl-sn-glycero-phosphoserine) and DOPC (1,2-dioeloyl-sn-glycero-phosphocholine) were mixed together with 800 μL of liposome buffer (50 mM Tris, 100 mM NaCl, 10 mM MgCl2, 5 mM DTT, pH=8.0) to final concentration of 0.1 mM of C8-PIP3, 0.25 mM DOPS and 0.25 mM DOPC. The lipid mixture was then sonicated at 4° C. for 30 min to produce liposome. After sonication, the liposome solution was briefly centrifuged to remove remaining lipids.
For PTEN activity assay, 20 ng of recombinant human PTEN protein was mixed with L of completed liposome solution. PTEN assay buffer (1 mM Tris, 20 mM DTT and 0.5% NP-40, pH=8.0) was added up to 100 μL as final volume. […] After incubation, the inorganic phosphate ions produced by PTEN protein was detected using Malachite Green phosphate detection kit. […]
All data represent experimentation in triplicate and the IC50 values were calculated by Prism 5 software (GraphPad Software). […]

[3] = system: endogenous Akt protein in PC12 cells; experiment: Western blot of Akt activation (phosphorylation) level in PC12 cell lysates; assay type: cell-based, rat; settings: differentiated PC12 cells, endogenous or overexpressed PTEN; TGN-1 10 and 100 μM, TGN-4 10 μM; 24 hr; anti-phospho Akt antibody
Method: PC12 rat pheochromocytoma cells were seeded to 6-well plate (0.6×10^6 cells/well) and cultured with DMEM media containing 7.5% FBS and 7.5% Goat Serum. After the cell confluency reached around 60˜ 70%, NGF (nerve growth factor, 50 ng/mL) was added to the PC12 cells for differentiation and incubated for 5 more days. Then, fresh media containing different amounts of TGN peptides in DMSO solution were added to each well and incubated further for 24 hr. For PTEN overexpression, PC12 cells were seeded in 6-well plate (1.0×10^6 cells/well) and differentiated with NGF (50 ng/mL) as above. DNA-Lipofectamine 2000 mixture was prepared for each well of cells to be transfected by firstly adding 2˜ 2.5 μg of human PTEN c-DNA into 500 μl of Opti-MEM. 3.75-8.75 μl of Lipofectamine 2000™ reagent was added next to the above diluted DNA solution, mixed gently and incubated for 25 minutes at room temperature. Growth media of PC12 cells in 6-well plate was exchanged with fresh media and 500 μl of the DNA-Lipofectamine 2000 complex was added to each well for transfection. Transfected cells were incubated at 37° C. in 5.0% CO2 incubator for 24-48 hours post-transfection before assaying for transgene expression.
After culturing, PC12 cells were collected from the 6-well plate and centrifuged down with bench-top centrifuger to make cell pellet (13,000 rpm, 5 min at RT). […]

## Cp23: synthetic phosphomimic peptide of Odriozola et al. encompassing PTEN AA368-390, no phosphorylated Serine residues (DVSDNEPDHYRYSDTTDSDPENE; UniProt P60484 368-390, looked up, fragment)
PTEN [1]
  IC50: ~1030 µM

## RRRRRRRR-DEHDTEYTPDYRQETHFNSQPTDKSDVI-amide (RRRRRRRRDEHDTEYTPDYRQETHFNSQPTDKSDVI-NH2) [TGN-5, scrambled peptide of TGN-2/TGN-3]
PTEN [2]
  Inhibition of PTEN activity (in words): no significant inhibition of PTEN activity

## RRRRRRRR-SDDEYTDNPDSRYVSDTPVDTEH-amide (RRRRRRRRSDDEYTDNPDSRYVSDTPVDTEH-NH2) [TGN-4, scrambled peptide of TGN-1, negative control]
[3]
  Activation (phosphorylation) level of Akt protein: did not increase the activation level of AKT protein
PTEN [2]
  Inhibition of PTEN activity (in words): no significant inhibition of PTEN activity
